Test results published in doi:10.1101/2025.09.11.675134, “Biodistribution-Driven Discovery Identifies a Glycosidase-Cleavable Linker to Reprogram Radiotheranostics” (bioRxiv, 2025).
Read-outs that look alike come from different tables or passages of the source.

What was measured:
[1] = PET/CT quantification of 86Y-labeled variants in AR42J xenograft mice; format: in vivo; details: athymic nude, mouse, in vivo, iv, total radioactivity, 86Y-labeled, PET/CT, AR42J xenograft mice, mean ± SD, n = 3; for SUV at 1 h: 1 h post-injection; for SUV at 24 h: 24 h post-injection
Method: For studies involving three variants (DOTA -TATE, DOTA-MVK(ε)-TATE, and DOTA-β-Gal-TATE), AR42J cells (5 × 10^6 cells per mouse) were subcutaneously inoculated into the right shoulder of the mice. Tumors were allowed to grow for 3 weeks, reaching a volume of 100 –200 mm³ before being used in subsequent experiments. For biodistribution or PET imaging studies, mice bearing subcutaneous AR42J tumors were administered 1.4 – 1.8 MBq (1 μg) of 111In-labeled DOTA-TATE variants or 2.7 – 4.9 MBq (1 μg) of 86Y-labeled DOTA-TATE variants via […]
tail vein injection. […]
PET imaging to assess the uptake of three 86Y-labeled DOTA-TATE variants (2.7 – 4.9 MBq, 1 μg) in the kidney and tumor was performed at 1, 4, and 24 hours post-injection (n = 3 per cohort) in mice bearing AR42J tumors using the MRS*PET/CT 120 scanner (MR Solutions, Guildford, UK). PET/CT data acquisition was managed using Preclinical Scan software (version 4.2.4.0, MR Solutions). Mice were anesthetized with 2% isoflurane, and static PET sc ans were acquired over 10 min. CT scans were obtained for attenuation correction and anatomical co-registration.
PET data were reconstructed using three-dimensional ordered-subsets expectation maximization, and were subsequently normalized, decay - and dead-time–corrected prior to analysis. PET/CT images were analyzed using MIM software (version 7.2.7, MIM Software Inc., Beachwood, OH, USA), and the quantitative evaluation of the maximum standardized uptake (SUVmax) and the average standardized uptake values (SUVmean) in the kidney and tumor were also performed. […]

[2] = Ex vivo biodistribution of 86Y-labeled variants in AR42J tumor-bearing mice; details: athymic nude, mouse, iv, 1 ug, total radioactivity, mean; for tissue uptake at 1 h: 1 h post-injection; for tissue uptake at 4 h: 4 h post-injection; for tissue uptake at 24 h: 24 h post-injection
Method: To independently confirm these observations, ex vivo biodistribution studies were conducted using the same ^86Y-labeled compounds at matched timepoints (Fig. S16; Table S3). […]
(§1) For studies involving three variants (DOTA -TATE, DOTA-MVK(ε)-TATE, and DOTA-β-Gal-TATE), AR42J cells (5 × 10^6 cells per mouse) were subcutaneously inoculated into the right shoulder of the mice. Tumors were allowed to grow for 3 weeks, reaching a volume of 100 –200 mm³ before being used in subsequent experiments. For biodistribution or PET imaging studies, mice bearing subcutaneous AR42J tumors were administered 1.4 – 1.8 MBq (1 μg) of 111In-labeled DOTA-TATE variants or 2.7 – 4.9 MBq (1 μg) of 86Y-labeled DOTA-TATE variants via tail vein injection. Biodistribution studies with 111In-labeled DOTA -TATE variants were performed 1 hour post -injection (n = 3 per cohort), while studies with 86Y-labeled DOTA-TATE variants were conducted at 1, 4, and 24 hours post -injection (n = 3 per cohort). Mice were euthanized by CO2 asphyxiation, and 10 tissues, including tumors, were collected. All samples were weighed and counted on a gamma counter (2480 Wizard 3, Perkin Elmer Inc., Waltham, MA, USA). Results are presented as percentage of injected activity per gram (%IA/g) and mean values ± standard deviations. […]

AR42J xenografts [3] = assay: Ex vivo biodistribution of 111In-labeled variants in AR42J xenograft mice; design: species or system athymic nude mice; details: AR42J xenografts, 1 h post-injection
Method: as §1

AR42J xenografts [4] = assay: Targeted alpha particle therapy, one-cycle regimen; format: in vivo, athymic nu/nu mice
Method: Building on the favorable dosimetry profiles observed for the cleavable linker-modified constructs, we next evaluated their therapeutic efficacy in vivo following one cycle of ^225Ac-labeled variants (Fig. 5C; Fig. S19A). […] Tumor growth, overall survival, and body weight were monitored over 95 days.
Mice received either a one-cycle regimen (n=8 per cohort) or a two-cycle regimen (n=6 per cohort) at an 8-day interval. Tumor volume and body weight were measured twice weekly after treatment using a digital caliper. Tumor volume was calculated using the formula V (mm^3) = (l × w^2)/2, where l (length) was the larger of the two perpendicular tumor axes, and w (width) was the smaller axis. Survival was monitored, with the endpoint defined as a tumor volume exceeding 2000 mm^3, a weight loss greater than 20% from baseline, or signs of distress in the mice.

[5] = blood, ex vivo, n = 3, read-out: Blood uptake
[6] = femur, ex vivo, n = 3, read-out: Femur uptake
[7] = heart, ex vivo, n = 3, read-out: Heart uptake
[8] = intestine, ex vivo, n = 3, read-out: Intestine uptake
[9] = ex vivo, n = 3, read-out: Tumor uptake
[10] = kidney, ex vivo, n = 3, read-out: Kidney uptake
[11] = liver, ex vivo, n = 3, read-out: Liver uptake
[12] = lung, ex vivo, n = 3, read-out: Lung uptake
[13] = muscle, ex vivo, n = 3, read-out: Muscle uptake
[14] = spleen, ex vivo, n = 3, read-out: Spleen uptake

`C[C@@H](O)[C@H](NC(=O)[C@@H]1CSSC[C@H](NC(=O)[C@@H](Cc2ccccc2)NC(=O)CN2CCN(CC(=O)O)CCN(CC(=O)O)CCN(CC(=O)O)CC2)C(=O)N[C@@H](Cc2ccc(O)cc2)C(=O)N[C@H](Cc2c[nH]c3ccccc23)C(=O)N[C@@H](CCCCN)C(=O)N[C@@H]([C@@H](C)O)C(=O)N1)C(=O)O` [^86Y-DOTA-TATE, metal not drawn, reference compound] showed an SUV at 1 h ([1]; 2.7–4.9 MBq (1 μg), read-out: Kidney SUVmax) of 0.95 ± 0.04 SUV, an SUV at 1 h ([1]; read-out: Tumor SUVmax) of 0.85 ± 0.14 SUV and an SUV at 4 h ([1]; 4 h post-injection, read-out: Kidney SUVmax) of 0.62 ± 0.06 SUV. It also gave an SUV at 24 h ([1]; read-out: Kidney SUVmax) of 0.41 ± 0.02 SUV, an SUV at 24 h ([1]; read-out: Tumor SUVmax) of 0.55 ± 0.04 SUV and a tissue uptake at 1 h ([2]; blood, i.v. 1 μg (2.7–4.9 MBq), ex vivo gamma counting, n = 3, read-out: Blood uptake) of 0.22 %ID/g. For the same compound, the tissue uptake at 4 h [2, 5] was 0.14 %ID/g, the tissue uptake at 24 h [2, 5] was 0.03 %ID/g and the tissue uptake at 1 h [2, 6] was 0.47 %ID/g. It also gave a tissue uptake at 4 h [2, 6] of 0.35 %ID/g, a tissue uptake at 24 h [2, 6] of 0.2 %ID/g and a tissue uptake at 1 h [2, 7] of 0.37 %ID/g. It also gave a tissue uptake at 4 h [2, 7] of 0.25 %ID/g, a tissue uptake at 24 h [2, 7] of 0.09 %ID/g and a tissue uptake at 1 h [2, 8] of 0.37 %ID/g. For the same compound, the tissue uptake at 4 h [2, 8] was 0.51 %ID/g, the tissue uptake at 24 h [2, 8] was 0.05 %ID/g and the tissue uptake at 1 h [2, 9] was 5.98 %ID/g. For the same compound, the tissue uptake at 4 h [2, 9] was 4.83 %ID/g, the tissue uptake at 24 h [2, 9] was 3.48 %ID/g and the tissue uptake at 1 h [2, 10] was 9.29 %ID/g. The tissue uptake at 4 h [2, 10] was 6.61 %ID/g, the tissue uptake at 24 h [2, 10] was 3.74 %ID/g and the tissue uptake at 1 h [2, 11] was 0.29 %ID/g. The tissue uptake at 4 h [2, 11] was 0.25 %ID/g, the tissue uptake at 24 h [2, 11] was 0.15 %ID/g and the tissue uptake at 1 h [2, 12] was 0.83 %ID/g. For the same compound, the tissue uptake at 4 h [2, 12] was 0.34 %ID/g, the tissue uptake at 24 h [2, 12] was 0.13 %ID/g and the tissue uptake at 1 h [2, 13] was 0.44 %ID/g. For the same compound, the tissue uptake at 4 h [2, 13] was 0.38 %ID/g, the tissue uptake at 24 h [2, 13] was 0.1 %ID/g and the tissue uptake at 1 h [2, 14] was 0.4 %ID/g. The tissue uptake at 4 h [2, 14] was 0.25 %ID/g and the tissue uptake at 24 h [2, 14] was 0.15 %ID/g.

With `C[C@@H](O)[C@H](NC(=O)[C@@H]1CSSC[C@H](NC(=O)[C@@H](Cc2ccccc2)NC(=O)CCCC(=O)Nc2cc(COC(=O)N(C)CCNC(=O)CN3CCN(CC(=O)O)CCN(CC(=O)O)CCN(CC(=O)O)CC3)ccc2O[C@@H]2O[C@H](CO)[C@H](O)[C@H](O)[C@H]2O)C(=O)N[C@@H](Cc2ccc(O)cc2)C(=O)N[C@H](Cc2c[nH]c3ccccc23)C(=O)N[C@@H](CCCCN)C(=O)N[C@@H]([C@@H](C)O)C(=O)N1)C(=O)O` [^111In-DOTA-β-Gal-TATE, metal not drawn] the “Improvement of T/K ratio over DOTA-TATE” value (AR42J xenografts [3]) was 2.7 fold, the “Increase in tumor uptake compared to DOTA-TATE” value (AR42J xenografts [3]) was ~ 90% and the “Reduction in kidney retention compared to DOTA-TATE” value (AR42J xenografts [3]) was ~ 29%.

For `C[C@@H](O)[C@H](NC(=O)[C@@H]1CSSC[C@H](NC(=O)[C@@H](Cc2ccccc2)NC(=O)CCCC(=O)Nc2cc(COC(=O)N(C)CCNC(=O)CN3CCN(CC(=O)O)CCN(CC(=O)O)CCN(CC(=O)O)CC3)ccc2O[C@@H]2O[C@H](CO)[C@H](O)[C@H](O)[C@H]2O)C(=O)N[C@@H](Cc2ccc(O)cc2)C(=O)N[C@H](Cc2c[nH]c3ccccc23)C(=O)N[C@@H](CCCCN)C(=O)N[C@@H]([C@@H](C)O)C(=O)N1)C(=O)O` [^225Ac-DOTA-β-Gal-TATE, metal not drawn], the Median survival time (AR42J xenografts [4]; 148 kBq (1 μg) per mouse, AR42J xenograft-bearing mice, n = 8, Kaplan–Meier, vehicle 16 days) was 86 days, the Tumor growth (AR42J xenografts [4]; 148 kBq per mouse, monitored over 95 days, n = 8) was “most sustained inhibition of tumor growth, with minimal progression observed up to day 35 post-treatment” and the Body weight (AR42J xenografts [4]; 148 kBq per mouse, n = 8) was “gradually regained weight by day 14, maintaining stable body weights for the remainder of the study”.
